Laboratory results from patent US8993839B2, “Plant-based production of heterologous proteins” (The Regents of the University of California, priority 2010, dated 2015).

Substrate: Cc1cc(=O)oc2cc(O[C@@H]3O[C@H](CO)[C@@H](O[C@@H]4O[C@H](CO)[C@@H](O)[C@H](O)[C@H]4O)[C@H](O)[C@H]3O)ccc12
Test: Michaelis-Menten kinetics of purified E1 (produced in P. pastoris, IMAC purified): cleavage of MUC to cellobiose and MU at various temperatures
Assay type: biochemical, Acidothermus cellulolyticus
Conditions: substrate MUC, from Lineweaver-Burk fit
Procedure: Endoglucanase activity assay: Endoglucanase (E1) cleaves methylumbelliferyl-tagged cellobiose (MUC), releasing methylumbelliferone (MU). The MU fluorescence can be measured to determine E1 activity. The relative fluorescence readings of 0.024 to 3.0 μM MU solutions were used to create a linear standard curve. Samples containing E1 were diluted so the concentration of MU released fell within the standard curve. A 60 μl aliquot of diluted supernatant was added to 540 μl of acetate buffer (200 mM acetate, pH 5.5, 100 mM NaCl) and 200 μl of substrate (500 μM MUC). 200 μl of reaction was sampled at time zero and after 30 minutes and added to 800 μl of stop buffer (150 mM glycine, pH 10). The change in fluorescence over time was measured with a VersaFluor fluorometer (Bio-Rad). Fluorescence was converted to an activity, and the specific activity reported in the literature was used to approximate the concentration of E1 in Pichia supernatants. The Michaelis-Menten kinetic parameters of purified endoglucanase were determined. The E1 was produced in P. pastoris and purified by IMAC (immobilized metal affinity chromatography). E1 cleaves the substrate (MUC) into cellobiose and a fluorophore (MU), the concentration of which can be monitored over time. When run at 65° C. and […] substrate, this is the reaction used for the activity assay for E1 in plant extracts and yeast cultures. In this set of experiments, the substrate concentration was varied to determine the kinetic parameters at different temperatures. The rate for a reaction displaying Michaelis-Menten kinetics is shown in Equation 1. The rate depends on the catalysis rate (kcat), the total enzyme concentration (ET), the adsorption/desorption rates which are lumped into the Michaelis-Menten constant (KM), and the substrate concentration (S). At high substrate concentrations (S>>KM), the rate approaches a maximum, and […] is often written as Vmax. The parameters Vmax and KM can be determined experimentally by varying the substrate concentration (S) and measuring the reaction rate (V) at each concentration. Equation 1 can be rearranged as a linear equation (Equation 2). When the reciprocal of the reaction rate (V) is plotted against the reciprocal of the substrate concentration (S), a line fitting the data points can be used to determine KM/Vmax (the slope) and 1/Vmax (y-intercept). A Bradford assay was used to determine the E1 protein concentration in each sample, and this value of ET was used to calculate the kcat values in Table 1. Table 1 depicts a summary of Michaelis-Menten parameters for E1-catalyzed degradation of MUC to MU at various temperatures.

[1] = other: 93 °C, uncertainty approaches 100%, not used further, 93.0 °C

B1: Acidothermus cellulolyticus β-1,4-endoglucanase E1 (P. pastoris-produced) (Acidothermus cellulolyticus 11B) (protein)
chain: AGGGYWHTSGREILDANNVPVRIAGINWFGFETCNYVVHGLWSRDYRSMLDQIKSLGYNTIRLPYSDDILKPGTMPNSINFYQMNQDLQGLTSLQVMDKIVAYAGQIGLRIILDRHRPDCSGQSALWYTSSVSEATWISDLQALAQRYKGNPTVVGFDLHNEPHDPACWGCGDPSIDWRLAAERAGNAVLSVNPNLLIFVEGVQSYNGDSYWWGGNLQGAGQYPVVLNVPNRLVYSAHDYATSVYPQTWFSDPTFPNNMPGIWNKNWGYLFNQNIAPVWLGEFGTTLQSTTDQTWLKTLVQYLRPTAQYGADSFQWTFWSWNPDSGDTGGILKDDWQTVDTVKDGYLAPIKSSIFDPVGASASPSSQPSPSVSPSPSPSPSASRTPTPTPTPTASPTPTLTPTATPTPTASPTPSPTAASGARCTASYQVNSDWGNGFTVTVAVTNSGSVATKTWTVSWTFGGNQTITNSWNAAVTQNGQSVTARNMSYNNVIQPGQNTTFGFQASYTGSNAAPTVACAASHHHHHH
other: 50 °C, 50.0 °C
  Km: 59 ± 3 µM
  Vmax: 0.083 µM/min
other: 65 °C, 65.0 °C
  Km: 131 ± 4 µM
  Vmax: 0.242 µM/min
other: 80 °C, 80.0 °C
  Km: 372 ± 50 µM
  Vmax: 0.523 µM/min
[1]
  Km: 576 ± 570 µM
  Vmax: 0.229 µM/min
